Tested on: Escherichia coli TOP10
Assay: shrunken log2 fold change of peptide-encoding DNA abundance (4.5 h post-induction vs induction); higher = less antimicrobial activity (less host growth inhibition)
Settings: time post-induction: 4.5 h; library: site-saturation at positions 5, 18, 19, 20
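Also: peptides expressed intracellularly from a pBAD plasmid library in pooled LB shake-flask culture, induced with 0.3% L-arabinose, DNA abundance read by NGS, three biological replicates, DESeq2 with apeglm shrinkage.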

Going from RRIRFRPPRLPRPRPRPPEAPRP to RRIRFRPPRLPRPRPRPPECPRP, the “shrunken log2 fold change” value falls from 0.232 to -0.0973.

Compared with RRIRFRPPRLPRPRPRPPEHPRP, RRIRFRPPRLPRPRPRPPEKPRP is lower in “shrunken log2 fold change” value: 0.682 for the first, 0.078 for the second.

RRIRFRPPRLPRPRPRPPEMPRP and RRIRFRPPRLPRPRPRPPFCPRP are within 0.2 log units of each other in “shrunken log2 fold change” value: 0.0471 for the first, 0.0782 for the second.

Compared with RRIRFRPPRLPRPRPRPPGDPRP, RRIRFRPPRLPRPRPRPPGFPRP is lower in “shrunken log2 fold change” value: 0.58 for the first, 0.268 for the second.

RRIRFRPPRLPRPRPRPPIHPRP and RRIRFRPPRLPRPRPRPPKGPRP are within 0.2 log units of each other in “shrunken log2 fold change” value: -0.255 for the first, -0.0971 for the second.

Compared with RRIRFRPPRLPRPRPRPPKNPRP, RRIRFRPPRLPRPRPRPPMVPRP is lower in “shrunken log2 fold change” value: 0.541 for the first, -0.391 for the second.

RRIRFRPPRLPRPRPRPPNKPRP and RRIRFRPPRLPRPRPRPPQGPRP are within 0.2 log units of each other in “shrunken log2 fold change” value: 0.1 for the first, 0.171 for the second.

First: RRIRFRPPRLPRPRPRPPQHPRP
Second: RRIRFRPPRLPRPRPRPPTEPRP
The “shrunken log2 fold change” value of the first is lower: 0.108 for the first, 0.438 for the second.

Compared with RRIRFRPPRLPRPRPRPPTWPRP, RRIRFRPPRLPRPRPRPPYEPRP is lower in “shrunken log2 fold change” value: 0.239 for the first, -0.202 for the second.

Compared with RRIRFRPPRLPRPRPRPPYKPRP, RRIRFRPPRLPRPRPRPPYPPRP is higher in “shrunken log2 fold change” value: -0.279 for the first, -0.0265 for the second.

RRIRFRPPRLPRPRPRPQCSPRP and RRIRFRPPRLPRPRPRPQDWPRP are within 0.2 log units of each other in “shrunken log2 fold change” value: 0.0505 for the first, -0.12 for the second.

RRIRFRPPRLPRPRPRPQEAPRP and RRIRFRPPRLPRPRPRPQESPRP are within 0.2 log units of each other in “shrunken log2 fold change” value: 0.201 for the first, 0.124 for the second.

Going from RRIRFRPPRLPRPRPRPQGWPRP to RRIRFRPPRLPRPRPRPQIEPRP, the “shrunken log2 fold change” value falls from 0.466 to -0.24.

Compared with RRIRFRPPRLPRPRPRPQKPPRP, RRIRFRPPRLPRPRPRPQLHPRP is higher in “shrunken log2 fold change” value: 0.121 for the first, 0.381 for the second.

Going from RRIRFRPPRLPRPRPRPQLYPRP to RRIRFRPPRLPRPRPRPQMHPRP, the “shrunken log2 fold change” value rises from -0.588 to -0.332.

RRIRFRPPRLPRPRPRPQPEPRP and RRIRFRPPRLPRPRPRPQQGPRP are within 0.2 log units of each other in “shrunken log2 fold change” value: -0.119 for the first, -0.0566 for the second.

Going from RRIRFRPPRLPRPRPRPQQHPRP to RRIRFRPPRLPRPRPRPQRAPRP, the “shrunken log2 fold change” value rises from -0.38 to 0.462.

RRIRFRPPRLPRPRPRPQRDPRP and RRIRFRPPRLPRPRPRPQRVPRP are within 0.2 log units of each other in “shrunken log2 fold change” value: 0.218 for the first, 0.045 for the second.

RRIRFRPPRLPRPRPRPQSEPRP and RRIRFRPPRLPRPRPRPQSIPRP are within 0.2 log units of each other in “shrunken log2 fold change” value: 0.00741 for the first, 0.0159 for the second.

Going from RRIRFRPPRLPRPRPRPQTRPRP to RRIRFRPPRLPRPRPRPQVHPRP, the “shrunken log2 fold change” value falls from 0.149 to -0.262.

First: RRIRFRPPRLPRPRPRPQVPPRP
Second: RRIRFRPPRLPRPRPRPQWFPRP
The “shrunken log2 fold change” value of the first is higher: -0.144 for the first, -0.344 for the second.

First: RRIRFRPPRLPRPRPRPQYKPRP
Second: RRIRFRPPRLPRPRPRPRARPRP
The “shrunken log2 fold change” value of the first is lower: -0.755 for the first, 0.661 for the second.

Going from RRIRFRPPRLPRPRPRPRCEPRP to RRIRFRPPRLPRPRPRPRDGPRP, the “shrunken log2 fold change” value rises from -0.0311 to 1.36.

Going from RRIRFRPPRLPRPRPRPRFEPRP to RRIRFRPPRLPRPRPRPRFIPRP, the “shrunken log2 fold change” value falls from 0.162 to -0.498.

Compared with RRIRFRPPRLPRPRPRPRFQPRP, RRIRFRPPRLPRPRPRPRGSPRP is higher in “shrunken log2 fold change” value: 0.0731 for the first, 0.432 for the second.

Going from RRIRFRPPRLPRPRPRPRGWPRP to RRIRFRPPRLPRPRPRPRHSPRP, the “shrunken log2 fold change” value falls from 0.9 to 0.0584.

Compared with RRIRFRPPRLPRPRPRPRINPRP, RRIRFRPPRLPRPRPRPRKRPRP is higher in “shrunken log2 fold change” value: -0.314 for the first, 0.263 for the second.

RRIRFRPPRLPRPRPRPRMVPRP and RRIRFRPPRLPRPRPRPRNTPRP are within 0.2 log units of each other in “shrunken log2 fold change” value: -0.157 for the first, -0.279 for the second.

Going from RRIRFRPPRLPRPRPRPRQAPRP to RRIRFRPPRLPRPRPRPRRMPRP, the “shrunken log2 fold change” value rises from 0.128 to 0.397.

RRIRFRPPRLPRPRPRPRRNPRP and RRIRFRPPRLPRPRPRPRTTPRP are within 0.2 log units of each other in “shrunken log2 fold change” value: 0.136 for the first, 0.299 for the second.

RRIRFRPPRLPRPRPRPRVFPRP and RRIRFRPPRLPRPRPRPRVGPRP are within 0.2 log units of each other in “shrunken log2 fold change” value: 0.232 for the first, 0.24 for the second.

RRIRFRPPRLPRPRPRPRVTPRP and RRIRFRPPRLPRPRPRPRVVPRP are within 0.2 log units of each other in “shrunken log2 fold change” value: 0.42 for the first, 0.298 for the second.

First: RRIRFRPPRLPRPRPRPRWHPRP
Second: RRIRFRPPRLPRPRPRPRYKPRP
The “shrunken log2 fold change” value of the first is higher: 0.059 for the first, -0.311 for the second.

Compared with RRIRFRPPRLPRPRPRPSAGPRP, RRIRFRPPRLPRPRPRPSAMPRP is lower in “shrunken log2 fold change” value: 0.192 for the first, -0.0766 for the second.

Compared with RRIRFRPPRLPRPRPRPSCCPRP, RRIRFRPPRLPRPRPRPSCRPRP is higher in “shrunken log2 fold change” value: -0.443 for the first, -0.145 for the second.

Compared with RRIRFRPPRLPRPRPRPSDKPRP, RRIRFRPPRLPRPRPRPSEVPRP is higher in “shrunken log2 fold change” value: -0.355 for the first, -0.0167 for the second.

RRIRFRPPRLPRPRPRPSFKPRP and RRIRFRPPRLPRPRPRPSFLPRP are within 0.2 log units of each other in “shrunken log2 fold change” value: -0.683 for the first, -0.572 for the second.

For RRIRFRPPRLPRPRPRPSFTPRP, the “shrunken log2 fold change” value was 0.587.
